These results are taken from paper PMC6035287.

The assay has as its target bovine brain tubulin (free tubulin) (bovine) (UniProt Q6B856). Description: ITC; TOG domain proteins in the syringe (150 μM CLASP2 TOG1, TOG2, TOG3; 200 μM CLIP-ID; 250 μM Stu2 TOG1), 15 μM bovine brain tubulin in the cell; BRB80 with 50 mM NaCl, 25°C; one set of sites model. For orientation: ITC needs no label: the signal is the heat of the interaction.

B1: Stu2 TOG1 (domain or fragment)
chain: MSGEEEVDYTTLPLEERLTYKLWKARLEAYKELNQLFRNSVGDISRDDNIQIYWRDPTLFAQYITDSNVVAQEQAIVALNSLIDAFASSSLKNAHNITLISTWTPLLVEKGLTSSRATTKTQSMSCILSLCGLDTSITQSVELVIPFFEKKLPKLIAAAANCVYELMAAFGLTNVNVQTFLPELLKHVPQLAGHGDRNVRSQTMNLIVEIYKVTGNNSDLLEEILFKKLKPIQVKDLHKLFAKVGDEPSSSKMLFEWEKRELEKKRSQEEEA
For B1, the Kd is 18.8 nM.

As a reminder, the Kd is the equilibrium constant for the complex coming apart.
